# Experimental data: paper PMC4687705, “Plasma levels of OLFM4 in normals and patients with gastrointestinal cancer” (Journal of Cellular and Molecular Medicine, 2015)
# B1: Olfactomedin 4 (OLFM4) (natural protein)
# chain: not shown
# modifications: highly glycosylated (sites not given); intermolecular disulphide bonds (cysteines not given)
# notes: Olfactomedin 4, human, native protein from specific granules of neutrophils; 72 kD under reducing conditions; Multimer of unstated size; also called hGC-1; GW112
# Target: the molecule itself
# Assay: western blot after SDS-PAGE under reducing and non-reducing conditions; isolated specific granules of human neutrophils, blotted with anti-OLFM4 clone #49; 12% polyacrylamide gels
protein,measurement,value
B1,binding result,binds
